Assay results taken from US20080248458A1 (UNIVERSITY OF NORTH CAROLINA AT CHAPEL HILL, published 2008).

B2: Ring1B (enzyme, mouse, UniProt Q9CQJ4 2-336, looked up)
chain: SQAVQTNGTQPLSKTWELSLYELQRTPQEAITDGLEIVVSPRSLHSELMCPICLDMLKNTMTTKECLHRFCADCIITALRSGNKECPTCRKKLVSKRSLRPDPNFDALISKIYPSRDEYEAHQERVLARINKHNNQQALSHSIEEGLKIQAMNRLQRGKKQQIENGSGAEDNGDSSHCSNASTHSNQEAGPSNKRTKTSDDSGLELDNNNAAVAIDPVMDGASEIELVFRPHPTLMEKDDSAQTRYIKTSGNATVDHLSKYLAVRLALEELRSKGESNQMNLDTASEKQYTIYIATASGQFTVLNGSFSLELVSEKYWKVNKPMELYYAPTKEHK
notes: mature; Untagged protein: 35S-labelled in vitro translation product (pCITE, full-length cDNA) in the GST pull-down; baculovirus-expressed in Sf9 cells in the co-purifications; also called Ring2; Ring2/Ring1B

Assays:
Ring1A = biological target: T1, Ring1A (mouse, UniProt O35730 1-406); assay: GST pull-down with 35S-labelled in vitro translated protein (FIG. 5A)
T1 construct: mature; Untagged protein: 35S-labelled in vitro translation product in the GST pull-down; baculovirus-expressed in Sf9 cells in the co-purifications; also called Ring1/Ring1A
T1 sequence (looked up): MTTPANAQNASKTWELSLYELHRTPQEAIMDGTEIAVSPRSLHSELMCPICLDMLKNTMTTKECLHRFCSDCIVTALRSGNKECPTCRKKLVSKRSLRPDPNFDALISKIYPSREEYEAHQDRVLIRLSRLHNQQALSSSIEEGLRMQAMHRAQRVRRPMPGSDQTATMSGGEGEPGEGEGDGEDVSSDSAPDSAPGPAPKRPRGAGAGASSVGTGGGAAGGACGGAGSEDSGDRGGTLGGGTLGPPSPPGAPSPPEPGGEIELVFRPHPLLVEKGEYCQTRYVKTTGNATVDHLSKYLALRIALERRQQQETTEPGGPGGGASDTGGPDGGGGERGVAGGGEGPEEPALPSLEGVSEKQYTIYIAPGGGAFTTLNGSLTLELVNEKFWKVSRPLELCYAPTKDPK
Protocol: (§1) Full-length cDNAs for Ring1B, Ring1A, Bmi-1, Pc3 and Ph2 were inserted into pCITE vector for in vitro translation using the rabbit reticulocyte lysate kit according to the manufacturer's instructions (PROMEGA, Madison, Wis.). Full-length cDNAs for Ring1B, Ring1A, Bmi-1, Pc3 and Ph2 were also cloned into pGEX-KG vector for the production of GST-fusion proteins. About 3 μg of GST or GST fusion proteins were bound to 10 μL of glutathione-immobilized agarose beads (Sigma) and incubated with in vitro-translated products in 500 μL buffer A (50 mM Tris-HCl [pH 7.9], 0.5 mM EDTA, 1 mM dithiothreitol, 0.2 mM phenylmethylsulfonyl fluoride, 10% glycerol) containing 150 mM KCl and 0.05% NP-40. After incubation at 4° C. for 2 hours, the beads were washed three times with buffer A containing 300 mM KCl and 0.05% NP-40 and then washed once in buffer A containing 50 mM KCl before being subjected to SDS-PAGE and autoradiogram.
(§2) To address the effect of other subunits on Ring1B enzymatic activity, an attempt was made to reconstitute Ring1B-containing subcomplexes. Toward this end, the precise spatial relationship among components of the complex were first defined using GST full-down assays. Individual components were expressed as GST fusion proteins and equal amounts of the fusion proteins, as well as GST alone (FIG. 5A, last panel), were immobilized onto beads and incubated with ³⁵S-labeled proteins. […]

GST-Ring1A = biological target: T2, GST-Ring1A (mouse, UniProt O35730 1-406); assay: as above
T2 construct: mature; Full-length cDNA cloned into pGEX-KG; also called GST fusion of Ring1A; not shown: glutathione S-transferase (GST) encoded by the pGEX-KG vector
T2 sequence (looked up): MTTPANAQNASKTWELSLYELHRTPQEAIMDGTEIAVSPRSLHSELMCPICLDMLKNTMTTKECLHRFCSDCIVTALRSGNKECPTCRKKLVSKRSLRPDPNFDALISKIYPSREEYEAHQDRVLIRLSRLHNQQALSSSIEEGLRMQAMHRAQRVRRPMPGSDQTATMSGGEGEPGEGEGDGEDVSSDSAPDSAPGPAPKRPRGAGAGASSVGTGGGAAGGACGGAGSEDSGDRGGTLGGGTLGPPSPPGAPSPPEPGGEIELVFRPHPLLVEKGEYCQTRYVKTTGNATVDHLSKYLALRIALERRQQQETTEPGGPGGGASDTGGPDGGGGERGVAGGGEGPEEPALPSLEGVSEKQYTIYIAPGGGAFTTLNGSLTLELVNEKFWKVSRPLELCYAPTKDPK
Protocol: as §1, §2

Ring1B = biological target: B2; assay: purification of two-component complexes from infected insect cells (FIG. 13D)
FLAG®-Ring1B = biological target: T3, FLAG®-Ring1B (mouse, UniProt Q9CQJ4 1-336); assay: co-expression in Sf9 cells, anti-FLAG purification, silver stain (FIG. 7A)
T3 construct: also called F-Ring1B
T3 sequence: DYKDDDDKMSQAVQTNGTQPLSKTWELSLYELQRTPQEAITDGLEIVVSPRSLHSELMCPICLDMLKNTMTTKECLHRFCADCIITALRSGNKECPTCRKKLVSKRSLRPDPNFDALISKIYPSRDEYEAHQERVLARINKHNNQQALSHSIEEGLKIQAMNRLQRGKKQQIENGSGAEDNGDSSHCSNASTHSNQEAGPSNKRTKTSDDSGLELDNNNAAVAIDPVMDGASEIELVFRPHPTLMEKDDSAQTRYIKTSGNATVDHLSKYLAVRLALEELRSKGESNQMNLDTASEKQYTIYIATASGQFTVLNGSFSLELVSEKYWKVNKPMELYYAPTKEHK
Protocol: To purify the recombinant PRC1 complex and sub-complexes, different baculoviruses were used to co-infect SF9 cells. After two days of infection, cells were collected and resuspended in F lysis buffer [20 mM Tris (pH 7.9), 500 mM NaCl, 4 mM MgCl₂, 0.4 mM EDTA, 2 mM DTT, 20% glycerol, 0.1% NP40] with proteinase inhibitors. Then cells were homogenized with pestle A three times (10 strokes each) in a period of 30 minutes. The supernatant was recovered by centrifuging at 11,000 rpm for 10 minutes. The supernatant was adjusted to 300 mM NaCl by adding Dilution buffer [20 mM Tris (pH 7.9), 10% glycerol], then incubated with the M2 α-FLAG® agarose (Sigma, St. Louis, Mo.) equilibrated with F lysis buffer for 4 hours at 4° C. After washing with F washing buffer [20 mM Tris (pH 7.9), 150 mM NaCl, 2 mM MgCl₂, 0.2 mM EDTA, 1 mM DTT, 15% glycerol, 0.01% NP40] until no protein came out, bound proteins were eluted with 0.2 mg/ml FLAG® peptide ([…]; SEQ ID NO:5) in F washing buffer for 20 minutes each time at room temperature. The eluted complexes were further purified through a gel-filtration SEPHADEX 200 or SUPEROSE 6 column. […]

Bmi-1, P25916 = biological target: T4, Bmi-1, P25916
T4 chain: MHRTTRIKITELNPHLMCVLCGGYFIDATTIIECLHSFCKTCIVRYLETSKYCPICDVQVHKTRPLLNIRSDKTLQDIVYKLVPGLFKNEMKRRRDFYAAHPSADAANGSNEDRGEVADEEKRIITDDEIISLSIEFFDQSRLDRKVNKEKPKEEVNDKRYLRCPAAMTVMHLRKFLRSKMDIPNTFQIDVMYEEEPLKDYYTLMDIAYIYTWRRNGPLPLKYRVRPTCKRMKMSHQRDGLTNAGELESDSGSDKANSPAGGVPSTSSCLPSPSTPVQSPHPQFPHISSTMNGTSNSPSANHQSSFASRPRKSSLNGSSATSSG

B1: GST-Ring1B (other, mouse, UniProt Q9CQJ4 2-336, looked up)
chain: SQAVQTNGTQPLSKTWELSLYELQRTPQEAITDGLEIVVSPRSLHSELMCPICLDMLKNTMTTKECLHRFCADCIITALRSGNKECPTCRKKLVSKRSLRPDPNFDALISKIYPSRDEYEAHQERVLARINKHNNQQALSHSIEEGLKIQAMNRLQRGKKQQIENGSGAEDNGDSSHCSNASTHSNQEAGPSNKRTKTSDDSGLELDNNNAAVAIDPVMDGASEIELVFRPHPTLMEKDDSAQTRYIKTSGNATVDHLSKYLAVRLALEELRSKGESNQMNLDTASEKQYTIYIATASGQFTVLNGSFSLELVSEKYWKVNKPMELYYAPTKEHK
notes: mature; Full-length cDNA cloned into pGEX-KG; also called GST fusion of Ring1B; not shown: glutathione S-transferase (GST) encoded by the pGEX-KG vector
B1: no binding (Ring1A).

B2: no binding (GST-Ring1A).

B3: Bmi-1 (other, mouse, UniProt P25916 1-324, looked up)
chain: MHRTTRIKITELNPHLMCVLCGGYFIDATTIIECLHSFCKTCIVRYLETSKYCPICDVQVHKTRPLLNIRSDKTLQDIVYKLVPGLFKNEMKRRRDFYAAHPSADAANGSNEDRGEVADEEKRIITDDEIISLSIEFFDQSRLDRKVNKEKPKEEVNDKRYLRCPAAMTVMHLRKFLRSKMDIPNTFQIDVMYEEEPLKDYYTLMDIAYIYTWRRNGPLPLKYRVRPTCKRMKMSHQRDGLTNAGELESDSGSDKANSPAGGVPSTSSCLPSPSTPVQSPHPQFPHISSTMNGTSNSPSANHQSSFASRPRKSSLNGSSATSSG
notes: mature; Untagged protein: 35S-labelled in vitro translation product in the GST pull-down; baculovirus-expressed in Sf9 cells in the two-component complex with FLAG-Ring1B
B3: binds (Ring1B); binds (FLAG®-Ring1B).

B4: FLAG®-Ring1B (protein)
chain: DYKDDDDKMSQAVQTNGTQPLSKTWELSLYELQRTPQEAITDGLEIVVSPRSLHSELMCPICLDMLKNTMTTKECLHRFCADCIITALRSGNKECPTCRKKLVSKRSLRPDPNFDALISKIYPSRDEYEAHQERVLARINKHNNQQALSHSIEEGLKIQAMNRLQRGKKQQIENGSGAEDNGDSSHCSNASTHSNQEAGPSNKRTKTSDDSGLELDNNNAAVAIDPVMDGASEIELVFRPHPTLMEKDDSAQTRYIKTSGNATVDHLSKYLAVRLALEELRSKGESNQMNLDTASEKQYTIYIATASGQFTVLNGSFSLELVSEKYWKVNKPMELYYAPTKEHK
B4 was tested, and the “E3 ligase activity (ubiquitylation of nucleosomal substrates)” value (Bmi-1, P25916) was “stimulated its E3 ligase activity”.
